For this assay, the target named is Flag–Rab32 (human) (UniProt Q13637). The assay can be described thus: co-IP.
Chain of Flag–Rab32 (human) (Q13637 whole entry): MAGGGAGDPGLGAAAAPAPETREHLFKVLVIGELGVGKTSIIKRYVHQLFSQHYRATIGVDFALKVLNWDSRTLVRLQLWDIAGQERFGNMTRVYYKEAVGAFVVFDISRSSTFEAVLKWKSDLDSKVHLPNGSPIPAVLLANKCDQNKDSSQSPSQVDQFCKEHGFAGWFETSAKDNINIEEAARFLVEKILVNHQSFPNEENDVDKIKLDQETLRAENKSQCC

Chain of endogenous PKA holoenzyme (P13861 whole entry, one chain of several): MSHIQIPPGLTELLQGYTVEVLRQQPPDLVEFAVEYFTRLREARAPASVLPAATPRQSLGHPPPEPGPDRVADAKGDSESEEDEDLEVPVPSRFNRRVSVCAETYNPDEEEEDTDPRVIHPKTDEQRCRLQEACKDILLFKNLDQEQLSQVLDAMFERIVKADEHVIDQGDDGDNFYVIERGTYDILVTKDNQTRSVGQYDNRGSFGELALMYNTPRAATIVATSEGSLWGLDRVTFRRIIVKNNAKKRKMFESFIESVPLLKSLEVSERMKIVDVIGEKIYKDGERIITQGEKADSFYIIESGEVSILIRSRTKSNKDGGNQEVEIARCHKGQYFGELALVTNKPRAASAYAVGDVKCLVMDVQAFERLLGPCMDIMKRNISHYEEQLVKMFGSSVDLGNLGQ

“endogenous PKA holoenzyme (from UniProt P13861 1-404; P17612 1-351) (complex)” gave a fold enrichment of PKA activity in the immune complexes of 7.1 fold.

The values are drawn from article PMC2174006.
